Consider one substance from publication doi:10.1101/2020.06.24.168591.

The target of this assay is E108D mutant of Thermoplasmatales archaeon SG8-52-1 heliorhodopsin (TaHeR) (Thermoplasmatales archaeon SG8-52-1). Kind of assay: crystal structure.

In turn, “E108D mutant of Thermoplasmatales archaeon SG8-52-1 heliorhodopsin (TaHeR) (natural protein)” registered a stoichiometry N of 2.
